In patent US20220184181A1 (Stanford University, published 2022):

Biological target: Met receptor on MDCK cells (UniProt Q75ZY9 25-1382, limits assumed)
Experiment: cell-based or functional assay

B1: recombinant Aras-4, soluble (ligand)
chain: YAEGQGKRRNTIHEFKKSAKTTLIKIDPALRIKTEKANTADQCANRCTRSKGLPFTCKAFVFDKARKRCLWFPFNSMSSGVKKEFGHEFDLYENKAYIRDCIIGRGRNYRGTVSITKSGIKCQPWSAMIPHEHSFLPSSYRGEDLRENYCRNPRGEEGGPWCYTSDPEVRYEVCDIPQCSEVE
- inhibition of HGF-induced activation of Met: ~5 fold lower concentration
